B1: N-terminal half of ubiquitin-fused talin head domain (N-Ub-THD), wild type [not stated] / integrin β3 transmembrane domain-tail fused to the C-terminal half of ubiquitin (C-Ub) [not stated] (parent)
chain 1: MVALSLKISIGNVVKTMQFEPSTMVYDACRMIRERIPEALAGPPNDFGLFLSDDDPKKGIWLEAGKALDYYMLRNGDTMEYRKKQRPLKIRMLDGTVKTIMVDDSKTVTDMLMTICARIGITNHDEYSLVRELMEEKKDEGTGTLRKDKTLLRDEKKMEKLKQKLHTDDELNWLDHGRTLREQGVEEHETLLLRRKFFYSDQNVDSRDPVQLNLLYVQARDDILNGSHPVSFDKACEFAGFQCQIQFGPHNEQKHKAGFLDLKDFLPKEYVKQKGERKIFQAHKNCGQMSEIEAKVRYVKLARSLKTYGVSFFLVKEKMKGKNKLVPRLLGITKECVMRVDEKTKEVIQEWSLTNIKRWAASPKSFTLDFGDYQDGYYSVQTTEGEQIAQLIAGYIDIILKKKKSKDHFGLEGDEESTMLEDSVSPKKSTVLQ
chain 2: ILVVLLSVMGAILLIGLAALLIWKLLITIHDRKEFAKFEEERARAKWDTANNPLYKEATSTFTNITYRGT

Variants of: B1
Test: mammalian two-hybrid (split-ubiquitin) assay, GFP expression read by flow cytometry
Settings: with integrin β3 transmembrane domain-tail fused to the C-terminal half of ubiquitin (C-Ub); CHO cells stably incorporated with 5xGAL4-UAS and the integrin β3 TMD-tail construct; Empty control 0.23 %, N-Ub-THD(ΔF3) 1.96 %; parent: 7.9

| response (% GFP-expressing cells) | Variant |
| --- | --- |
| 2.28 | chain 1 MVALSLKISIGNVVKTMQFEPSTMVYDACRMIRERIPEALAGPPNDFGLFLSDDDPKKGIWLEAGKALDYYMLRNGDTMEYRKKQRPLKIRMLDGTVKTIMVDDSKTVTDMLMTICARIGITNHDEYSLVRELMEEKKDEGTGTLRKDKTLLRDEKKMEKLKQKLHTDDELNWLDHGRTLREQGVEEHETLLLRRKFFYSDQNVDSRDPVQLNLLYVQARDDILNGSHPVSFDKACEFAGFQCQIQFGPHNEQKHKAGFLDLKDFLPKEYVKQKGERKIFQAHKNCGQMSEIEAKVRYVKLARSLKTYGVSFFLVKEKMKGDNKLVPRLLGITKECVMRVDEKTKEVIQEWSLTNIKRWAASPKSFTLDFGDYQDGYYSVQTTEGEQIAQLIAGYIDIILKKKKSKDHFGLEGDEESTMLEDSVSPKKSTVLQ [chain 1 K322D] |

— publication PMC11104707
